{
  "source": "paper PMC4598299",
  "binders": {"B1": {"name": "hTER CR4/5 (structured_RNA)", "RNA": "CCCGCCUGGAGGCCGCGGUCCGCCGCGAAGAGUUGGGCUCUGUCAGCCGCGGG"}},
  "biological_target": "hThumb WT (hTERT thumb/CTE domain) (human, UniProt O14746 943-1132)",
  "sequence (O14746 943-1132)": "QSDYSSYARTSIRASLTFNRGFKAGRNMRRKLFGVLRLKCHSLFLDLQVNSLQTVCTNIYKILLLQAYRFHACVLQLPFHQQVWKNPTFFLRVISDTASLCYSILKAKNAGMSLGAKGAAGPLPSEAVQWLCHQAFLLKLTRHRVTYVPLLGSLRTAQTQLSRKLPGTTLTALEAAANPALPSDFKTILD",
  "assay": "fluorescence polarization",
  "data": [
    {"binder": "B1", "values": [
      {"measurement": "Kd", "result": "~0.4", "unit": "µM"}
    ]}
  ]
}
